Numbered stars: 1 amine (or outer) side, 2 acyl side, 3 side chain; on linkers, the order of the positions; unused ones are H or OH. Bridge positions count the residues as written; N and C are the ends. Side chains are listed from the residue outwards. Ends that are not written are not given here. * marks the point of attachment. C20 diacid = O=C(O)CCCCCCCCCCCCCCCCCCC(=O)*; γGlu = O=C(O)[C@H](CCC(=O)[*:2])N[*:1]; AEEA = NCCOCCOCC(=O)O
T1: rat calcitonin receptor (rat, UniProt P32214 25-516)
T1 construct: whole, on cells; Membranes of transiently transfected BHK tk'ts 13 cells; also called rCTR; rat calcitonin (a) receptor
T1 sequence (looked up): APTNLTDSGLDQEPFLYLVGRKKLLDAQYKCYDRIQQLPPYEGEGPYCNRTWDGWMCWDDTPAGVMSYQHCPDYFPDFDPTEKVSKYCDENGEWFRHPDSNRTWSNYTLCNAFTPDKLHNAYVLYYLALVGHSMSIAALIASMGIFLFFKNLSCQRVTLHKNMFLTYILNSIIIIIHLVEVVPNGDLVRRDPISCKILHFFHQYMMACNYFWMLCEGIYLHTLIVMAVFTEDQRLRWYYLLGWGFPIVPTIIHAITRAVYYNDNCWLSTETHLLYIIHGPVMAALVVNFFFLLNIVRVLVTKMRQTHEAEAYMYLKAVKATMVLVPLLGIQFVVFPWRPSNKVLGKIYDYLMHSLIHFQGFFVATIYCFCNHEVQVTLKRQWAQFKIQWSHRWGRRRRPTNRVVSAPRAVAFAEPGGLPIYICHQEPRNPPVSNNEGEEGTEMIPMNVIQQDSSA

T2: rat amylin receptor (rat calcitonin receptor + rat RAMP 3) (rat, UniProt P32214 25-516; Q9JJ73 23-147)
T2 construct: whole, on cells; Membranes of transiently transfected BHK tk'ts 13 cells; also called rAmylin-R; rat amylin 3(a) receptor
T2 sequence (looked up) 1: T1 sequence (looked up)
T2 sequence (looked up) 2: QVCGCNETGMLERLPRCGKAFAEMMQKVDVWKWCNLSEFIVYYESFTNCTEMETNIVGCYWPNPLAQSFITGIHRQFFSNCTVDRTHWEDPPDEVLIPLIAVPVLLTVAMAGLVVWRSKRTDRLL

T3: human calcitonin receptor (human, UniProt P30988 25-474)
T3 construct: whole, on cells; Membranes of stably transfected cells; also called hCTR; hCT
T3 sequence (looked up): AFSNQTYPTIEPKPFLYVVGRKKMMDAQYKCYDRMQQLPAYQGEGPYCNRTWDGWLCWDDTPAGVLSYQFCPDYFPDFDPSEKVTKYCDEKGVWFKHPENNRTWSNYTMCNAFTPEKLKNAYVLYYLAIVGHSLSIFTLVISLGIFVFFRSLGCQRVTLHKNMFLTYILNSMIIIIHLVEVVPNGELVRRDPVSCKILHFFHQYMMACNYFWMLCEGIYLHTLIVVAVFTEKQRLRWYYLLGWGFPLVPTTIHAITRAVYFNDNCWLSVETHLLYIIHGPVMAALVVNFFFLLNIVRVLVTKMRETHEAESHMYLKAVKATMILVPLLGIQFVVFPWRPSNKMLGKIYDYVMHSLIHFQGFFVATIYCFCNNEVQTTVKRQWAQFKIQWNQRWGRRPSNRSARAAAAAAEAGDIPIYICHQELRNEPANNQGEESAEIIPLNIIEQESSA

B1: N^ε1-[(4S)-4-carboxy-4-[[(4S)-4-carboxy-4-(19-carboxynonadecanoylamino)butanoyl]amino]butanoyl]-[Glu14,Arg17,Pro21,Pro27,Pro34,Glu35]-h-amylin (peptide)
peptide: K([γGlu-γGlu-C20 diacid])CNTATCATQRLAEFLRHSSPNFGAIPSSTNVGPETY-NH2
modifications: disulfide 2-7 (inferred)
notes: Synthetic acylated analogue of human amylin
B2: N^ε1-[2-[2-[2-[[2-[2-[2-[[(4S)-4-carboxy-4-(19-carboxynonadecanoylamino)butanoyl]amino]ethoxy]ethoxy]acetyl]amino]ethoxy]ethoxy]acetyl]-[Arg17,Pro21,Pro27,Arg34 … (peptide)
peptide: K([AEEA-AEEA-γGlu-C20 diacid])CNTATCATQRLANFLRHSSPNFGAIPSSTNVGRNTY-NH2
modifications: disulfide 2-7; N-terminus assumed
SMILES: CC[C@H](C)[C@H](NC(=O)[C@H](C)NC(=O)CNC(=O)[C@H](Cc1ccccc1)NC(=O)[C@H](CC(N)=O)NC(=O)[C@@H]1CCCN1C(=O)[C@H](CO)NC(=O)[C@H](CO)NC(=O)[C@H](Cc1c[nH]cn1)NC(=O)[C@H](CCCNC(=N)N)NC(=O)[C@H](CC(C)C)NC(=O)[C@H](Cc1ccccc1)NC(=O)[C@H](CC(N)=O)NC(=O)[C@H](C)NC(=O)[C@H](CC(C)C)NC(=O)[C@H](CCCNC(=N)N)NC(=O)[C@H](CCC(N)=O)NC(=O)[C@@H](NC(=O)[C@H](C)NC(=O)[C@@H]1CSSC[C@H](NC(=O)[C@@H](N)CCCCNC(=O)COCCOCCNC(=O)COCCOCCNC(=O)CC[C@H](NC(=O)CCCCCCCCCCCCCCCCCCC(=O)O)C(=O)O)C(=O)N[C@@H](CC(N)=O)C(=O)N[C@@H]([C@@H](C)O)C(=O)N[C@@H](C)C(=O)N[C@@H]([C@@H](C)O)C(=O)N1)[C@@H](C)O)C(=O)N1CCC[C@H]1C(=O)N[C@@H](CO)C(=O)N[C@@H](CO)C(=O)N[C@H](C(=O)N[C@@H](CC(N)=O)C(=O)N[C@H](C(=O)NCC(=O)N[C@@H](CCCNC(=N)N)C(=O)N[C@@H](CC(N)=O)C(=O)N[C@H](C(=O)N[C@@H](Cc1ccc(O)cc1)C(N)=O)[C@@H](C)O)C(C)C)[C@@H](C)O
notes: Synthetic acylated analogue of human amylin; also called compound 95
B3: N^ε1-[2-[2-[2-(19-carboxynonadecanoylamino)ethoxy]ethoxy]acetyl]-[His14,Arg17,Pro21,Pro27]-h-amylin (peptide)
peptide: K([AEEA-C20 diacid])CNTATCATQRLAHFLRHSSPNFGAIPSSTNVGSNTY-NH2
modifications: disulfide 2-7; N-terminus assumed
SMILES: CC[C@H](C)[C@H](NC(=O)[C@H](C)NC(=O)CNC(=O)[C@H](Cc1ccccc1)NC(=O)[C@H](CC(N)=O)NC(=O)[C@@H]1CCCN1C(=O)[C@H](CO)NC(=O)[C@H](CO)NC(=O)[C@H](Cc1c[nH]cn1)NC(=O)[C@H](CCCNC(=N)N)NC(=O)[C@H](CC(C)C)NC(=O)[C@H](Cc1ccccc1)NC(=O)[C@H](Cc1c[nH]cn1)NC(=O)[C@H](C)NC(=O)[C@H](CC(C)C)NC(=O)[C@H](CCCNC(=N)N)NC(=O)[C@H](CCC(N)=O)NC(=O)[C@@H](NC(=O)[C@H](C)NC(=O)[C@@H]1CSSC[C@H](NC(=O)[C@@H](N)CCCCNC(=O)COCCOCCNC(=O)CCCCCCCCCCCCCCCCCCC(=O)O)C(=O)N[C@@H](CC(N)=O)C(=O)N[C@@H]([C@@H](C)O)C(=O)N[C@@H](C)C(=O)N[C@@H]([C@@H](C)O)C(=O)N1)[C@@H](C)O)C(=O)N1CCC[C@H]1C(=O)N[C@@H](CO)C(=O)N[C@@H](CO)C(=O)N[C@H](C(=O)N[C@@H](CC(N)=O)C(=O)N[C@H](C(=O)NCC(=O)N[C@@H](CO)C(=O)N[C@@H](CC(N)=O)C(=O)N[C@H](C(=O)N[C@@H](Cc1ccc(O)cc1)C(N)=O)[C@@H](C)O)C(C)C)[C@@H](C)O
notes: Synthetic acylated analogue of human amylin; also called compound 90
B4: N^ε1-[2-[2-[2-[[2-[2-[2-[[(4S)-4-carboxy-4-(19-carboxynonadecanoylamino)butanoyl]amino]ethoxy]ethoxy]acetyl]amino]ethoxy]ethoxy]acetyl]-[Arg17,Pro21,Pro27,His34 … (peptide)
peptide: K([AEEA-AEEA-γGlu-C20 diacid])CNTATCATQRLANFLRHSSPNFGAIPSSTNVGHNTY-NH2
modifications: disulfide 2-7; N-terminus assumed
SMILES: CC[C@H](C)[C@H](NC(=O)[C@H](C)NC(=O)CNC(=O)[C@H](Cc1ccccc1)NC(=O)[C@H](CC(N)=O)NC(=O)[C@@H]1CCCN1C(=O)[C@H](CO)NC(=O)[C@H](CO)NC(=O)[C@H](Cc1c[nH]cn1)NC(=O)[C@H](CCCNC(=N)N)NC(=O)[C@H](CC(C)C)NC(=O)[C@H](Cc1ccccc1)NC(=O)[C@H](CC(N)=O)NC(=O)[C@H](C)NC(=O)[C@H](CC(C)C)NC(=O)[C@H](CCCNC(=N)N)NC(=O)[C@H](CCC(N)=O)NC(=O)[C@@H](NC(=O)[C@H](C)NC(=O)[C@@H]1CSSC[C@H](NC(=O)[C@@H](N)CCCCNC(=O)COCCOCCNC(=O)COCCOCCNC(=O)CC[C@H](NC(=O)CCCCCCCCCCCCCCCCCCC(=O)O)C(=O)O)C(=O)N[C@@H](CC(N)=O)C(=O)N[C@@H]([C@@H](C)O)C(=O)N[C@@H](C)C(=O)N[C@@H]([C@@H](C)O)C(=O)N1)[C@@H](C)O)C(=O)N1CCC[C@H]1C(=O)N[C@@H](CO)C(=O)N[C@@H](CO)C(=O)N[C@H](C(=O)N[C@@H](CC(N)=O)C(=O)N[C@H](C(=O)NCC(=O)N[C@@H](Cc1c[nH]cn1)C(=O)N[C@@H](CC(N)=O)C(=O)N[C@H](C(=O)N[C@@H](Cc1ccc(O)cc1)C(N)=O)[C@@H](C)O)C(C)C)[C@@H](C)O
notes: Synthetic acylated analogue of human amylin; also called compound 97
B5: N^ε1-[2-[2-[2-(19-carboxynonadecanoylamino)ethoxy]ethoxy]acetyl]-[Arg17,Pro21,Pro27,His34]-h-amylin (peptide)
peptide: K([AEEA-C20 diacid])CNTATCATQRLANFLRHSSPNFGAIPSSTNVGHNTY-NH2
modifications: disulfide 2-7; N-terminus assumed
SMILES: CC[C@H](C)[C@H](NC(=O)[C@H](C)NC(=O)CNC(=O)[C@H](Cc1ccccc1)NC(=O)[C@H](CC(N)=O)NC(=O)[C@@H]1CCCN1C(=O)[C@H](CO)NC(=O)[C@H](CO)NC(=O)[C@H](Cc1c[nH]cn1)NC(=O)[C@H](CCCNC(=N)N)NC(=O)[C@H](CC(C)C)NC(=O)[C@H](Cc1ccccc1)NC(=O)[C@H](CC(N)=O)NC(=O)[C@H](C)NC(=O)[C@H](CC(C)C)NC(=O)[C@H](CCCNC(=N)N)NC(=O)[C@H](CCC(N)=O)NC(=O)[C@@H](NC(=O)[C@H](C)NC(=O)[C@@H]1CSSC[C@H](NC(=O)[C@@H](N)CCCCNC(=O)COCCOCCNC(=O)CCCCCCCCCCCCCCCCCCC(=O)O)C(=O)N[C@@H](CC(N)=O)C(=O)N[C@@H]([C@@H](C)O)C(=O)N[C@@H](C)C(=O)N[C@@H]([C@@H](C)O)C(=O)N1)[C@@H](C)O)C(=O)N1CCC[C@H]1C(=O)N[C@@H](CO)C(=O)N[C@@H](CO)C(=O)N[C@H](C(=O)N[C@@H](CC(N)=O)C(=O)N[C@H](C(=O)NCC(=O)N[C@@H](Cc1c[nH]cn1)C(=O)N[C@@H](CC(N)=O)C(=O)N[C@H](C(=O)N[C@@H](Cc1ccc(O)cc1)C(N)=O)[C@@H](C)O)C(C)C)[C@@H](C)O
notes: Synthetic acylated analogue of human amylin; also called compound 91

molecular target: T1, rat calcitonin receptor; assay: SPA competition with 125I-calcitonin on membranes of BHK tk'ts 13 cells with rat calcitonin receptor (Assay VIII)

| IC50 [µM] | Binder |
| --- | --- |
| 0.0161 | B1 |
| 0.389 | B2 |
| 0.0182 | B3 |
| 0.159 | B4 |
| 0.0295 | B5 |

molecular target: T2, rat amylin receptor (rat calcitonin …); assay: SPA competition with 125I-rat amylin on membranes of BHK tk'ts 13 cells with rat calcitonin receptor + rat RAMP3 (Assay VI)

| IC50 [µM] | Binder |
| --- | --- |
| 0.000182 | B1 |
| 0.00545 | B2 |
| 0.000246 | B3 |
| 0.00224 | B4 |
| 0.000386 | B5 |

molecular target: T1, rat calcitonin receptor; assay: ratio of IC50 on rat calcitonin receptor to IC50 on rat amylin receptor (reference m40)

| Ratio rCT/rAmylin binding | Binder |
| --- | --- |
| 88.5 | B1 |
| 71.3 | B2 |
| 74.1 | B3 |
| 71.1 | B4 |
| 76.3 | B5 |

molecular target: T3, human calcitonin receptor; assay: ratio of IC50 on human calcitonin receptor to IC50 on human amylin receptor (reference m42), SPA competition
Protocol: The resulting pellet was resuspended, homogenized and centrifuged (20.000 rpm, 15 min) in a buffer containing 20 mM Na-HEPES and 0.1 mM EDTA (pH 7.4, buffer 2). The resulting pellet was resuspended in buffer 2 and protein concentration was measured (BCA protein Assay, Pierce). The homogenate was kept cold during the whole procedure. The membranes were kept at −80° C. until use. The assay was performed in a 384 well Optiplate (PerkinElmer) in a total volume of 40 ul. Membranes were mixed with SPA beads. Final concentration of membranes 35 ng/μL final and SPA beads was 0.05 mg/well. Test-compounds were dissolved in DMSO and further diluted in assay buffer (50 mM Hepes, pH 7.4, 1 mM CaCl2, 5 mM MgCl₂, 0.1% OA and 0.02% Tween20). […] The final mixture was incubated with shaking at 400 rpm for 120 min at 25° C. prior to centrifugation (1500 rpm, 10 min). Samples were analyzed on TopCounter™ (Packard). The IC₅₀ was calculated using (one site binding competition analysis) GraphPad Prism5 as a measure of receptor affinity.
Membranes were prepared in the following way; the cells were rinsed with PBS and incubated with Versene for approximately 5 min before harvesting. The cells were flushed with PBS and the cell-suspension was centrifuged for 5 min at 1000 rpm. Cells were homogenized (Ultrathurrax) in a buffer containing 20 mM Na-HEPES and 10 mM EDTA (pH 7.4) and centrifuged at 20.000 rpm for 15 min. The resulting pellet was resuspended, homogenized and centrifuged (20.000 rpm, 15 min) in a buffer containing 20 mM Na-HEPES and 0.1 mM EDTA (pH 7.4, buffer 2). The resulting pellet was resuspended in buffer 2 and protein concentration was measured (BCA protein Assay, Pierce). The homogenate was kept cold during the whole procedure. The membranes were kept at −80° C. until use. Assay was performed in a 384 well Optiplate (PerkinElmer) in a total volume of 40 ul. Membranes were mixed with SPA beads.

| Ratio hCT/hAmylin binding | Binder |
| --- | --- |
| 17.6 | B1 |
| 63.4 | B2 |
| 42.2 | B3 |
| 104 | B4 |
| 101 | B5 |

From patent US20140087995A1 (published 2014)
